Results taken from patent US10308692B2, “Variants of GAL2 transporter and their uses” (Johann Wolfgang Goethe-Universität Frankfurt, priority 2014, dated 2019).
Residue numbers refer to the chain shown, from its start. Numbers in names are those of the source.

Key:
Format in all cases: cell-based, Saccharomyces cerevisiae
[1] = tested on: EBY.VW4000; test: Xylose uptake assay with radioactively labelled xylose; settings: for xylose uptake rate compared to wild type: FIGS. 7 and 8; for Vmax: xylose uptake, Michaelis-Menten fit (GraphPad Prism), three replicates, figures give velocity in nmol xylose per minute per milligram cell dry mass
Description: FIG. 7: Xylose uptake assay of Gal2_N376Y, N376Y+M435I and Gal2 wild type in EBY.VW4000 (three independent replicates). The uptake velocity is shown in nmol xylose per minute per milligram cell dry mass.
FIG. 8: Xylose uptake assay of Gal2_N376F, N376F+M435I and Gal2 wild type in EBY.VW4000 (three independent replicates). The uptake velocity is shown in nmol xylose per minute per milligram cell dray mass.
Sugar uptake assays were done as described by Bisson et al. (Bisson and Fraenkel, 1983) with modifications according to Walsh et al. (Walsh et al., 1994).
Transformants of strain EBY.VW4000 were grown in selective YEPE to an OD of 1.1-1.6, harvested by centrifugation and washed twice in ice-cold uptake-buffer (RT, 3 min, 3000×g). Cells were kept on ice from here on. The cell pellet was resuspended in ice-cold uptake-buffer to a concentration of 60 mgww/ml and aliquoted to 110 μl. One cell suspension aliquot and one sugar solution were incubated in a water bath at 30° C. for 4-5 min. 100 μl of the cell suspension were pipetted to the sugar solution (50 μl), mixed briefly by pipetting and incubated for 5 (D-[U-^14C]-glucose) or 20 sec (D-[1-^14C]-xylose). The uptake reaction was stopped by transferring 100 μl of the mixture into 10 ml ice-cold quenching-buffer, which was immediately filtered through a Durapore membrane filter (0.22 μm pore size, Millipore). The filter was washed twice with 10 ml ice-cold quenching-buffer, transferred to a scintillation vial containing 4 ml scintillation cocktail (Rotiszint eco plus, Roth) and shaken thoroughly. Additionally to this filter sample (cpmfilter), 10 μl of each reaction were transferred directly to a scintillation vial with 4 ml scintillation cocktail for determination of the total counts in the reaction (cpmtotal). To determine a value for sugar that is bound unspecifically to the cell surface or the filter (cpmblank) a few samples of 33,3 μl sugar solution and 66,6 μl cell suspension were mixed in 10 ml icecold quenching buffer and treated as described above. Radioactivity of all vials was analysed in an Wallac 1409 liquid scintillation counter.
Stocksolutions of 2M, 500 mM or 20 mM glucose or xylose (in H2O) were used to prepare the sugar solutions for the assays (threefold of the desired concentration in the uptake reaction (S, substrate concentration), 50 μl aliquots). Uptake was measured at sugar concentrations 0.2, 1, 5, 25 and 100 mM for glucose and 1, 5, 25, 66, 100, 200 and 500 mM for xylose. Inhibition of xylose uptake by glucose was measured at 25, 66 and 100 mM xylose with additional 25 and 100 mM unlabelled glucose. Sugar solutions contained 0.135 to 0.608 μCi of D-[U-^14C]-glucose (290-300 mCi/mmol) or D-[1-^14C]-xylose (55 mCi/mmol) (American Radiolabeled Chemicals Inc., St. Louis, Mo., USA).
The amount of sugar (Asugar in nmol) taken up during the incubation time (t, in seconds) at a certain sugar concentration (S, in mM): Asugar=((cpmsample−cpmblank)/(cpmtotal·10))·S·100 μl
Transport velocity (in nmol·min^−1·mgww^−1) calculated per milligrams of cell (m, in mgww): V=(Asugar·60 s)/(t·m)
Calculation of Km (Michaelis constant), Vmax (maximal initial uptake velocity) and Ki (inhibitor constant for competitive inhibition) was done by nonlinear regression analysis and global curve fitting in Prism 5 (GraphPad Software, Inc.) with values of three independent measurements.
Xylose uptake of Gal2_N376F, N376F+M435I, N376Y und N376Y+M435I was characterized with a sugar uptake assay. The relevant plasmids were transformed in strain EBY.VW4000. Cells were cultivated in SCM-ura until they reached the exponential growth phase (OD600˜0.6). Then cells were harvested, concentrated to the same OD600 (OD600 35-40), separated into different aliquots and stored on ice.
Three uptake assays (in tripicates) were performed with different concentrations of radioactively labelled xylose. Data were collected and fittet with GraphPad Prism according to Michaelis Menten (FIGS. 7 and 8).

[2] = tested on: AFY10; test: Growth test in liquid media and fermentation; settings: for xylose concentration of the supernatant decreased during the fermentation to: HPLC
Protocol: The strain AFY10, which was transformed with YEp181_pHXT7-opt.XI_Clos and p426H7-GAL2_wt (WT) or p426H7-GAL2_ep3.1 (ep3.1) or p426-GAL2_N376Y+M435I (M435I), was incubated in 150 ml SCE-ura-leu+G418. This was the preculture which was used to start the fermentation with an OD600 of 0.6 in 30 ml SC-ura-leu with 0.6% xylose (A) or with 0.6% xylose with 2% glucose (B). The cultures were incubated at 180 rpm and 30° for seven days. Samples were taken for growth measurements as well as metabolite analysis.
For analysis of metabolites cell-free samples (5-10 min, 4° C., 16000×g) were mixed with 1/9 volumes of 50% (w/v) 5-sulfosalicylic acid and centrifuged (5-10 min, 4° C., 16000×g). The supernatant was analyzed in an UHPLC+ system by Thermo Scientific (Dionex UltiMate 3000) equipped with a HyperREZ XP Carbohydrate H^+8 μm column and a refractive index detector (Thermo Shodex RI-101). Separation was carried out at column temperature of 65° C. with 5 mM sulfuric acid as mobiles phase with a flow rate of 0.6 ml/min. Chromeleon 6.80 software was used to control the system and to analyze the data. Five standards (mixtures of D-glucose, D-xylose, xylitol, acetate, glycerol and ethanol with concentrations of 0.01-3% (w/v)) were analyzed for quantification of the different compounds.
To investigate the growth difference and the xylose consumption of the mutants in comparison to the wild type and the error prone mutant, an anaerobic growth test in liquid media was carried out. For this purpose AFY10 cells were co-transformed with the vector with the respective GAL2 sequence and YEp181_pHXT7-opt.XI_Clos and inoculated in SCE-ura-leu+G418 to have an OD600 of 0.6 in 30 ml SC-ura-leu with 0.6% xylose or with 0.6% xylose with 2% glucose. The OD600 was measured regularly during five days, the growth rate μ was determined and the metabolites of the samples were examined, whereby the samples were diluted 1:5 for this reason.

[3] = tested on: AFY10; test: Serial dilution drop test on xylose and xylose-glucose media; settings: for growth on low xylose: 0.2% (2 g/l) xylose; for growth on high xylose: 2% (20 g/l) xylose, compared within the same drop test
Protocol: The transformants were cultivated in 5 ml SCE-ura-leu with 2% ethanol at 30°, washed with water and adjusted to an OD600 of 1. Thereof it followed a serial dilution. 5 μl were dropped onto the respective media and it was incubated for five days at 30°. As a control for the dilution SCE-ura-leu with 2% ethanol was taken. The cells of the mutated transporters were dropped onto SCX-ura-leu with 0.2% and 2% D-xylose, as well as SC-ura-leu with 1% D-xylose with 4% D-glucose and SC-ura-leu with 0.2% D-xylose and 2% D-glucose to test their functionality. Furthermore the wild type and Gal2_ep3.1 were used for comparison.
FIG. 5: Drop test of Gal2_M435I in AFY10 after five days at 30°. Several dilutions were dropped from left to right (undiluted, 1:10, 1:100, 1:1000).
FIG. 6: Drop test of Gal2_N376F, N376F+M435I and N376Y+M435I in AFY10 after five days at 30°. Several dilutions were dropped from left to right (undiluted, 1:10, 1:100, 1:1000). But on 20 g/l xylose the order was different (undiluted, 1:100, 1:1000, 1:10).
(§1) For easy comparison of growth of different S. cerevisiae strains under various growth conditions a serial dilution spot assay was performed. Cells were grown in liquid culture to exponential phase in appropriate medium, collected by centrifugation (2000×g, 2 min), washed twice with sterile water and then resuspended to an OD600 of 1.0 in selective medium without carbon source. From this cell suspension a ten-fold serial dilution was prepared in selective medium (four dilution steps). 6 μl of each cell suspension were spotted on plates of the media to be examined and allowed to dry. Plates were incubated at 30° C.
To characterize the different constructs which all were verified by sequencing they were transformed together with vector YEp181_pHXT7-optXI_Clos into competent AFY10 cells and drop tests were performed.

[4] = tested on: EBY.VW4000; test: Serial dilution drop test on glucose and galactose media
Protocol: The transformants were cultivated in 5 ml SCM-ura with 20 g/l maltose at 30°, washed with water and adjusted to an OD600 of 1. Thereof it followed a serial dilution. 5 μl were dropped onto the respective media and it was incubated for three days at 30°. As a control for the dilution SCM-ura with 20 g/l maltose was taken. The cells of the mutated transporters were dropped onto SCD-ura with 0.2% and 2% glucose, as well as SCG-ura with 0.2% and 2% D-galactose to test their functionality. Furthermore the wild type, Gal2_ep3.1 and Gal2_N376Y were used for comparison.
FIG. 4: Drop test of Gal2_M435I in EBY.VW4000 after three days at 30°. Several dilutions from left to right were dropped (undiluted, 1:10, 1:100, 1:1000).
as §1

[5] = start 0.6% xylose with 2% glucose
[6] = drop test, FIG. 4, versus wild-type Gal2

B1: N376Y + M435I: Gal2 variant with amino acid substitutions N376Y and M435I (protein, UniProt P13181 1-574, looked up, variant N376Y M435I)
Galactose transporter: MAVEENNMPVVSQQPQAGEDVISSLSKDSHLSAQSQKYSNDELKAGESGSEGSQSVPIEIPKKPMSEYVTVSLLCLCVAFGGFMFGWDTGTISGFVVQTDFLRRFGMKHKDGTHYLSNVRTGLIVAIFNIGCAFGGIILSKGGDMYGRKKGLSIVVSVYIVGIIIQIASINKWYQYFIGRIISGLGVGGIAVLCPMLISEIAPKHLRGTLVSCYQLMITAGIFLGYCTNYGTKSYSNSVQWRVPLGLCFAWSLFMIGALTLVPESPRYLCEVNKVEDAKRSIAKSNKVSPEDPAVQAELDLIMAGIEAEKLAGNASWGELFSTKTKVFQRLLMGVFVQMFQQLTGNNYFFYYGTVIFKSVGLDDSFETSIVIGVVYFASTFFSLWTVENLGHRKCLLLGAATMMACMVIYASVGVTRLYPHGKSQPSSKGAGNCIIVFTCFYIFCYATTWAPVAWVITAESFPLRVKSKCMALASASNWVWGFLIAFFTPFITSAINFYYGYVFMGCLVAMFFYVFFFVPETKGLSLEEIQELWEEGVLPWKSEGWIPSSRRGNNYDLEDLQHDDKPWYKAMLE
xylose uptake rate compared to wild type [1]: strongly improved | Vmax [1]: 99.61 | growth rate ([2]; 0.6% xylose): 0.014 h⁻¹ | growth rate ([2]; 0.6% xylose with 2% glucose): 0.015 h⁻¹ | xylose concentration of the supernatant decreased during the fermentation to [2, 5]: 0.37% | xylose concentration of the supernatant decreased during the fermentation to ([2]; start 0.6% xylose): 0.35% | growth on low xylose [3]: better growth | growth on low xylose with glucose ([3]; 0.2% xylose with 2% glucose): better growth | growth on xylose with glucose ([3]; 1% xylose with 4% glucose (10 g/l xylose plus 40 g/l glucose)): best growth | growth on high xylose [3]: best growth

B2: Gal2 WT: wild-type protein Gal2 of S. cerevisiae CEN.PK2-1C, SEQ ID NO: 1, 574 amino acids, galactose transporter (protein, UniProt P13181 1-574, looked up)
Galactose transporter: B1 Galactose transporter with Y376N, I435M
Vmax [1]: 63.43 | OD600 tend ([2]; [Xyl+Glu]: 0.6% xylose with 2% glucose): 0,52 | OD600 tend ([2]; [Xyl]: 0.6% xylose without glucose): 0,86 | xylose concentration of the supernatant decreased during the fermentation to [2, 5]: 0.53% | growth on low xylose [3]: best growth

B3: Gal2_M435I: M435I exchange introduced into wild-type Gal2 (protein, UniProt P13181 1-574, looked up, variant M435I)
Galactose transporter: B1 Galactose transporter with Y376N
growth on low xylose [3]: No growth | growth on high xylose [3]: slow growth | growth on xylose-glucose mixtures ([3]; FIG. 5): No growth | uptake of xylose ([3]; drop test, FIG. 5): reduced | growth on glucose ([4]; 2 g/l and 20 g/l glucose): much slower | uptake of galactose [4, 6]: no effect | uptake of glucose [4, 6]: strongly reduced

B4: N376F: Gal2 variant with amino acid substitution N376F (protein, UniProt P13181 1-574, looked up, variant N376F)
Galactose transporter: B1 Galactose transporter with Y376F, I435M
Vmax [1]: 25.86 | growth on low xylose [3]: better than that of Gal2_N376Y+M435I

B5: N376Y: Gal2 variant with amino acid substitution N376Y (protein, UniProt P13181 1-574, looked up, variant N376Y)
Galactose transporter: B1 Galactose transporter with I435M
xylose uptake rate compared to wild type [1]: strong reduction | Vmax [1]: 11.92

B6: N376F + M435I: Gal2 variant with amino acid substitutions N376F and M435I (protein, UniProt P13181 1-574, looked up, variant N376F M435I)
Galactose transporter: B1 Galactose transporter with Y376F
xylose uptake rate compared to wild type [1]: reduced uptake rate | Vmax [1]: 13.81 | growth on low xylose [3]: grow the best
